Measurements reported in US6379665B1, “Phospholipase D polypeptide and DNA sequences” (Onyx Pharmaceuticals, Inc., priority 1996, dated 2002).

Test system: COS-7 cells
Assay: standard headgroup assay of extracts of COS-7 cells transfected with mPLD2
Format: biochemical
Settings: pCGN expression vector
Method: Human PLD1a was also expressed in COS-7 cells. A fragment of the hPLD1a cDNA encoding the entire open reading frame (nucleotides 93 through 3603 of the cDNA) was subcloned in-frame downstream of the cytomegalovirus promoter and the Flu epitope tag in the mammalian expression vector pCGN. COS-7 cells were transfected with 3 g of the resulting plasmid, pFlu-hPLD1, using lipofectamine (Life Technologies, Inc.). Forty-eight hours later, the cells were assayed for PLD activity in the standard headgroup assay referenced below. The time course of choline release varied linearly over time and in proportion to the amount of protein added.
mPLD2 activity was assessed as described in Example 3 for hPLD1. The mPLD2 protein coding sequence was subcloned in pCGN, an expression vector containing a CMV promoter, flu-epitope tag and an SV40 polyadenylation signal sequence. See Example 3. […] The protein coding sequence of mPLD2 was also subcloned in a baculovirus vector following the protocol of Example 3. mPLD2 activity was successfully detected using the procedures described in Example 3.

B1: mPLD2: murine phospholipase D2, approximately 932 amino acid protein, SEQ ID NO:8 (protein, UniProt P97813 1-933, looked up)
Phospholipase D2: MTVTQKNLFPYGDYLNSSQLHMEPDEVDTLREGEDPADRMHPYLAIYDLQPLKAHPLVFAPGVPVIAQVVGTERYTSGSKVGTCTLYSVRLTHGDFTWTTKKKFRHFQELHRDLQRHKVLMSLLPLARFAVTHSPAREAAAEDIPSLPRGGSEGSARHTASKQKYLENYLNRLLTMSFYRNYHAMTEFLEVSQLSFIPDLGSKGLEGVIRKRSGGHRVPGFTFCGRDQVCYRWSKRWLVVKDSFLLYMRPETGAISFVQLFDPGFEVQVGKRSTETRYGVRIDTSHRSLILKCSSYRQARWWGQEITELAQGSGRDFLQLHQHDSYAPPRPGTLARWFVNGAGYFAAVADAILRAQEEIFITDWWLSPEIYLKRPAHSDDWRLDIMLKRKAEEGVRVSILLFKEVELALGINSGYSKRTLMLLHPNIKVMRHPDLVTLWAHHEKLLVVDQVVAFLGGLDLAFGRWDDVQYRLTDLGDPSEPVHLQTPTLGSDPAATPDLSHNQFFWLGKDYSNLITKDWVQLDRPFEDFIDRETTPRMPWRDVGVVVHGVAARDLARHFIQRWNFTKTTKARYKTPLYPYLLPKSTSTANNLPFMIPGGQCATVQVLRSVDRWSAGTLENSILNAYLHTIRESQHFLYIENQFFISCSDGRTVLNKVGDEIVDRILKAHEQGQCFRVYLLLPLLPGFEGDISTGGGNSIQAILHFTYRTLCRGEHSILHRLKAAMGTAWRDYMSICGLRTHGELGGHPISELIYIHSKMLIADDRTVIIGSANINDRSLLGKRDSELAILIKDTEMEPSLMDGVEYQAGRFALSLRKHCFSVILGANTWPDLDLRDPVCDDFFQLWQETAENNATIYEQIFRCLPSNATRSLRALREYVAVESLATVSPSLAQSELAHIQGHLVHFPLKFLEDESLLPPLGSKEGMIPLEVWT
  PLD activity in transfected COS-7 cell extracts: far above COS-7 background levels
